Test results as given in paper PMC6650244.

Columns and labels:
[1] = target: CDK9 (cyclin-dependent kinase 9) (UniProt Q99J95); experiment: co-immunoprecipitation (IP: BMAL1) with immunoblot, chemiluminescence band intensity; settings: nuclear extracts, synchronized fibroblasts 24 hr after Dex, scale: relative band intensity
[2] = target: BRD4 (bromodomain-containing protein 4) (UniProt Q9ESU6); experiment: as above; settings: nuclear extracts, synchronized fibroblasts 24 hr after Dex, scale: relative band intensity
[3] = highest amount of IP (two-fold dilution series, lane 3 of 3)
[4] = lowest amount of IP (two-fold dilution series, lane 1 of 3)
[5] = middle amount of IP (two-fold dilution series, lane 2 of 3)

response [1, 3]: 0.07 | response [1, 4]: 0.01 | response [1, 5]: 0.03 | response [2, 3]: 0.1 | response [2, 4]: 0.02 | response [2, 5]: 0.06
Substance: BMAL1 (brain and muscle ARNT-like protein 1) K538R
